Test results reported in publication PMC8248410 (Chemmedchem, 2021).
The star is where a group is joined. Biotin = O=C1N[C@H]2[C@H](CS[C@H]2CCCCC(=O)*)N1; Ahx = NCCCCCC(=O)O

Target: gp120_(HxBc2) (HIV-1 (HxBc2), UniProt P04578 33-511)
Test: cell-based or functional assay

Binder | IC50 of inhibition of HIV-1 NL4-3 infection of CEMx174 SEAP reporter cells
{Biotin-Ahx}-LCDCPNGPWVWVPAFCQAVG-OH (cysteine pairing not given here) [P6‐2(Bio)] | 1240 nM
Ac-LCDCPNGPWVWVPAFCQAVG-OH (cysteine pairing not given here) [P6‐2] | 2630 nM
